# Literature values in paper PMC4536614.
# Biological target: C3d C3d (Homo sapiens) (UniProt P01024)
# Sequence (P01024 1002-1303): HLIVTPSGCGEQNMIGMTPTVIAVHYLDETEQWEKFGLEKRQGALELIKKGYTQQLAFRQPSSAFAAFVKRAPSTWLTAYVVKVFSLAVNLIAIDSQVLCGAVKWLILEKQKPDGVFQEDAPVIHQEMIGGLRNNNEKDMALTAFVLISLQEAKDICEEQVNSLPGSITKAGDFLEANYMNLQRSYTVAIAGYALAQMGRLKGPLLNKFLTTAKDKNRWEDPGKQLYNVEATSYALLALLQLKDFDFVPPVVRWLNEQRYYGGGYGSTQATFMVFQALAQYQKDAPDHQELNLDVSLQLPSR
# Chain of complement receptor 2 (CR2) (P20023 21-971): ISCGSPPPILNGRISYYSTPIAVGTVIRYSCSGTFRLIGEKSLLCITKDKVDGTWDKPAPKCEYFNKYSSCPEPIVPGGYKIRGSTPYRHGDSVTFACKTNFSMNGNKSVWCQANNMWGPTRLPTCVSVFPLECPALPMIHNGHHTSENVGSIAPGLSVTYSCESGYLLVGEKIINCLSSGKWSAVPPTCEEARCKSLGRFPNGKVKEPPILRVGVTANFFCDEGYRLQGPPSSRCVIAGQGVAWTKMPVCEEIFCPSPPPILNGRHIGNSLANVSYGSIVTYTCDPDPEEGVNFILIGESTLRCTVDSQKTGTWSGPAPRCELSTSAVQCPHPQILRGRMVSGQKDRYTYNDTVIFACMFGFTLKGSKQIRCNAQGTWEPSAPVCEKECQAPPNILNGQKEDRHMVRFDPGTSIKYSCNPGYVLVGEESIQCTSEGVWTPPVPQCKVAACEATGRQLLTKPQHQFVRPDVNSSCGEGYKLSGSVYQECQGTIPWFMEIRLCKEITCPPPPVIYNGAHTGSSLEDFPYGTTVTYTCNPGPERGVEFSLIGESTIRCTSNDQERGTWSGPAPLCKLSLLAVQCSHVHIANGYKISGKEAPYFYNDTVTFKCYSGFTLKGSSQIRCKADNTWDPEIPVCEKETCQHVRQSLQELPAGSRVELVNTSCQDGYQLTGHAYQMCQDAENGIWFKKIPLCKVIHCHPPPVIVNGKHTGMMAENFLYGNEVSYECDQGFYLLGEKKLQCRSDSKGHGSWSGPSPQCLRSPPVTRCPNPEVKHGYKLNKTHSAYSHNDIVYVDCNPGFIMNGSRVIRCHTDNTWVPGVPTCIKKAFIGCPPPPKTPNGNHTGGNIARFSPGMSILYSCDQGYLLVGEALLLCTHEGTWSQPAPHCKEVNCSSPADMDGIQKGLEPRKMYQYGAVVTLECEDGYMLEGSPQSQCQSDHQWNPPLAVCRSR
substance,measurement,value
complement receptor 2 (CR2) (from UniProt P20023),Kd,500 nM
